Test results reported in patent US20080286277A1 (GLYCART BIOTECHNOLOGY, published 2008).
Changes are numbered by the printed parent chain.

B1: humanized ICR62 antibody I-HHD/I-KC8 (antibody, human IgG1, V domains shown)
VH: QVQLVQSGAEVKKPGSSVKVSCKASGFTFTDYKIHWVRQAPGQGLEWMGYFNPNSGYSTYAQKFQGRVTITADKSTSTAYMELSSLRSEDTAVYYCARLSPGGYYVMDAWGQGTTVTVSS
VL: DIQMTQSPSSLSASVGDRVTITCRASQGINNYLNWYQQKPGKAPKRLIYNTNNLQSGVPSRFSGSGSGTEFTLTISSLQPEDFATYYCLQHNSFPTFGQGTKLEIKR
B2: humanized ICR62 antibody I-HHD/I-KC9 (antibody, human IgG1, V domains shown)
VH: B1 VH
VL: B1 VL with S56T, F94Y
B3: humanized ICR62 antibody I-HHD/I-KC4 (antibody, human IgG1, V domains shown)
VH: B1 VH
VL: B1 VL with N50T, S56T
B4: humanized ICR62 antibody I-HHD/I-KC5 (antibody, human IgG1, V domains shown)
VH: B1 VH
VL: B1 VL with T51A, S56T
B5: humanized ICR62 antibody I-HHD/I-KC1 (antibody, human IgG1, V domains shown)
VH: B1 VH
VL: B1 VL with N30R, S56T
B6: humanized ICR62 antibody I-HHD/I-KC6 (antibody, human IgG1, V domains shown)
VH: B1 VH
VL: B1 VL with N52S, S56T
B7: humanized ICR62 antibody I-HHD/I-KC7 (antibody, human IgG1, V domains shown)
VH: B1 VH
VL: B1 VL with N53S, S56T
B8: humanized ICR62 antibody I-HHD/I-KC2 (antibody, human IgG1, V domains shown)
VH: B1 VH
VL: B1 VL with Y32W, S56T
B9: humanized ICR62 antibody I-HHD-7/I-KC (antibody, human IgG1, V domains shown)
VH: B1 VH with N54I
VL: B1 VL with S56T
B10: humanized ICR62 antibody I-HHD-9/I-KC (antibody, human IgG1, V domains shown)
VH: B1 VH with S58A
VL: B1 VL with S56T
B11: humanized ICR62 antibody I-HHD-11/I-KC (antibody, human IgG1, V domains shown)
VH: B1 VH with A109V
VL: B1 VL with S56T
B12: humanized ICR62 antibody I-HHD-6/I-KC (antibody, human IgG1, V domains shown)
VH: B1 VH with P53A
VL: B1 VL with S56T
B13: humanized ICR62 antibody I-HHD-4/I-KC (antibody, human IgG1, V domains shown)
VH: B1 VH with D31E
VL: B1 VL with S56T
B14: humanized ICR62 antibody I-HHD-1/I-KC (antibody, human IgG1, V domains shown)
VH: B1 VH with F27G
VL: B1 VL with S56T
B15: humanized ICR62 antibody I-HHD-2/I-KC (antibody, human IgG1, V domains shown)
VH: B1 VH with T28S
VL: B1 VL with S56T
B16: chimeric rat-human ICR62 antibody (antibody, human IgG1, V domains shown)
VH: QVNLLQSGAALVKPGASVKLSCKGSGFTFTDYKIHWVKQSHGKSLEWIGYFNPNSGYSTYNEKFKSKATLTADKSTDTAYMELTSLTSEDSATYYCTRLSPGGYYVMDAWGQGASVTVSS
VL: DIQMTQSPSFLSASVGDRVTINCKASQNINNYLNWYQQKLGEAPKRLIYNTNNLQTGIPSRFSGSGSGTDYTLTISSLQPEDFATYFCLQHNSFPTFGAGTKLELKR
notes: also called ch-ICR62; chimeric ICR62
B17: humanized ICR62 antibody I-HLA2/I-KC (antibody, human IgG1, V domains shown)
VH: QVQLVQSGAEVKKPGASVKVSCKASGFTFTDYYMHWVRQAPGQGLEWMGWINPNSGYSTYNEKFQGQVTISADKSISTAYLQWSSLKASDTAMYYCARLSPGGYYVMDAWGQGTTVTVSS
VL: B1 VL with S56T
B18: humanized ICR62 antibody I-HHF/I-KC (antibody, human IgG1, V domains shown)
VH: B1 VH with A24G, T59N
VL: B1 VL with S56T
B19: humanized ICR62 antibody I-HLA6/I-KC (antibody, human IgG1, V domains shown)
VH: B17 VH with V2M, A9P, A16T
VL: B1 VL with S56T
B20: humanized ICR62 antibody I-HHD/I-KC3 (antibody, human IgG1, V domains shown)
VH: B1 VH
VL: B1 VL with N34G, S56T
B21: humanized ICR62 antibody I-HLA1/I-KC (antibody, human IgG1, V domains shown)
VH: B17 VH with N61S, E62P, K63S
VL: B1 VL with S56T
B22: humanized ICR62 antibody I-HLA/I-KB (antibody, human IgG1, V domains shown)
VH: B1 VH with S16A, K33Y, I34M, Y50W, F51I, I70M, K74T, T76I, S85R, E89D
VL: B1 VL with R24K, G28N, S56T, F71Y
B23: humanized ICR62 antibody I-HLA7/I-KC (antibody, human IgG1, V domains shown)
VH: B17 VH with V2M, A9P, A16T, Y33K, M34I, P41R, G44R, M48I
VL: B1 VL with S56T
B24: humanized ICR62 antibody I-HHD-10/I-KC (antibody, human IgG1, V domains shown)
VH: B1 VH with V106G
VL: B1 VL with S56T
B25: humanized ICR62 antibody I-HHD-8/I-KC (antibody, human IgG1, V domains shown)
VH: B1 VH with Y57T
VL: B1 VL with S56T
B26: humanized ICR62 antibody I-HLA8/I-KC (antibody, human IgG1, V domains shown)
VH: B1 VH with V2M, A9P, S16T
VL: B1 VL with S56T
B27: humanized ICR62 antibody I-HHG/I-KC (antibody, human IgG1, V domains shown)
VH: B1 VH with A24G, S58A
VL: B1 VL with S56T
B28: humanized ICR62 antibody I-HLA4/I-KC (antibody, human IgG1, V domains shown)
VH: B17 VH with F27Y
VL: B1 VL with S56T
B29: humanized ICR62 antibody I-HLA9/I-KC (antibody, human IgG1, V domains shown)
VH: B1 VH with Q1E, S16E, V18L, V20I, A24G, F27Y, T28S
VL: B1 VL with S56T
B30: humanized ICR62 antibody I-HLA3/I-KC (antibody, human IgG1, V domains shown)
VH: B17 VH with F27Y, N61S, E62P, K63S
VL: B1 VL with S56T
B31: humanized ICR62 antibody I-HLA5/I-KC (antibody, human IgG1, V domains shown)
VH: B17 VH with V2M, A9P, A16T, N61S, E62P, K63S
VL: B1 VL with S56T
B32: humanized ICR62 antibody I-HHB/I-KC (not glycoengineered) (antibody, V domains shown)
VH: B1 VH with A24G
VL: B1 VL with S56T
notes: also called I-HHB/KC
B33: humanized ICR62 antibody I-HLA/I-KA (antibody, human IgG1, V domains shown)
VH: B1 VH with S16A, K33Y, I34M, Y50W, F51I, I70M, K74T, T76I, S85R, E89D
VL: B1 VL with S56T, F71Y
B34: humanized ICR62 antibody I-HHC/I-KB (antibody, human IgG1, V domains shown)
VH: B1 VH with A24G, A61N, Q62E, Q65K, G66S
VL: B1 VL with R24K, G28N, S56T, F71Y
notes: I-HHC was also paired with I-KA and the chimeric light chain

target: T1, human epidermal growth factor receptor (EGFR) (human, UniProt P00533 25-1210); experiment: flow cytometry on A431 cells, light chain paired with I-HHD
T1 construct: whole, on cells; also called HER-1; ErbB1

| binding result | Binder |
| --- | --- |
| binds | B1 |
| binds | B2 |
| binds | B3 |
| binds | B4 |
| binds | B5 |
| binds | B6 |
| binds | B7 |
| binds | B8 |

target: T1, human epidermal growth factor receptor …; experiment: flow cytometry on A431 cells, heavy chain paired with I-KC

| binding result | Binder |
| --- | --- |
| binds | B9 |
| binds | B10 |
| binds | B11 |
| binds | B12 |
| binds | B13 |
| binds | B14 |
| binds | B15 |

target: T1, human epidermal growth factor receptor …; experiment: flow cytometry on A431 cells
Protocol: The purified, monomeric humanized antibody variants were tested for binding to human epidermal growth factor receptor (EGFR, also referred to in the literature as HER-1 or ErbB1) on the A431 human epidermal cell line, using a flow cytometry-based assay. 200,000 cells (e.g., from human A431 cell line) in 180 μl FACS buffer (PBS containing 2% FCS and 5 mM EDTA) were transferred to 5 ml polystyrene tubes and 20 μl 10 fold concentrated anti-EGFR antibody (primary antibody) samples (1-5000 ng/ml final concentration) or PBS only were added. After gently mixing the samples, the tubes were incubated at 4° C. for 30 min in the dark. Subsequently, samples were washed twice with FACS buffer and pelleted at 300×g for 3 min. Supernatant was aspirated off and cells were taken up in 50 μl FACS buffer and 2 μl secondary antibody (anti-Fc-specific F(ab′)2-FITC fragments (Jackson Immuno Research Laboratories, USA)) was added and the tubes were incubated at 4° C. for 30 min. Samples were washed twice with FACS buffer and taken up in 500 μl of FACS buffer for analysis by Flow Cytometry. Binding was determined by plotting the geometric mean fluorescence against the antibody concentrations.

| EC50 [µg/mL] | EC50 fold lower relative to I-HLA4 [fold] | binding result | EC50 fold increase relative to ch-ICR62, I-HLA1 and I-HLA2 [fold] | EC50 fold increase relative to I-KC (paired with I-HHD) [fold] | EC50 fold increase relative to I-HHD parent construct [fold] | EC50 fold decrease relative to ch-ICR62 [fold] | Binder |
| --- | --- | --- | --- | --- | --- | --- | --- |
| ~0.3 | 2 | – | – | – | – | – | B16 |
| ~0.3 | – | – | – | – | – | – | B17 |
| – | – | binds | – | – | – | – | B18 |
| – | – | – | 2 | – | – | – | B19 |
| – | – | – | – | 10 | – | – | B20 |
| ~0.3 | – | – | – | – | – | – | B21 |
| – | – | binds | – | – | – | – | B22 |
| – | – | binds | – | – | – | – | B23 |
| – | – | – | – | – | 10 | – | B24 |
| – | – | – | – | – | 10 | – | B25 |
| – | – | – | – | – | – | 2 | B26 |
| – | – | binds | – | – | – | – | B27 |
| – | – | – | 2 | – | – | – | B28 |
| – | – | binds | – | – | – | – | B29 |
| – | – | – | 2 | – | – | – | B30 |
| – | – | – | 2 | – | – | – | B31 |
| – | – | binds | – | – | – | – | B32 |
| – | – | binds | – | – | – | – | B33 |
| – | – | binds | – | – | – | – | B34 |
